Test results taken from article PMC4601640, “Stability of the Human Hsp90-p50^Cdc37 Chaperone Complex against Nucleotides and Hsp90 Inhibitors, and the Influence of Phosphorylation by Casein Kinase 2” (Molecules, 2015).
“Also recorded” adds a separate entry of the source. Each block holds one substance with its values, some of them ahead of it.

Columns and labels:
[1] = molecular target: p50Cdc37 1-378 (UniProt Q16543); test: ELISA on immobilized GST-p50Cdc37, nucleotide dose-response; details: for other: IC50 of ATP against complex: ATP titration; for other: IC50 of ADP against complex: ADP titration
[2] = molecular target: Hsp82 (Saccharomyces cerevisiae) (UniProt P02829); details: cited from earlier work
Hsp82 (Saccharomyces cerevisiae), sequence (P02829 whole entry): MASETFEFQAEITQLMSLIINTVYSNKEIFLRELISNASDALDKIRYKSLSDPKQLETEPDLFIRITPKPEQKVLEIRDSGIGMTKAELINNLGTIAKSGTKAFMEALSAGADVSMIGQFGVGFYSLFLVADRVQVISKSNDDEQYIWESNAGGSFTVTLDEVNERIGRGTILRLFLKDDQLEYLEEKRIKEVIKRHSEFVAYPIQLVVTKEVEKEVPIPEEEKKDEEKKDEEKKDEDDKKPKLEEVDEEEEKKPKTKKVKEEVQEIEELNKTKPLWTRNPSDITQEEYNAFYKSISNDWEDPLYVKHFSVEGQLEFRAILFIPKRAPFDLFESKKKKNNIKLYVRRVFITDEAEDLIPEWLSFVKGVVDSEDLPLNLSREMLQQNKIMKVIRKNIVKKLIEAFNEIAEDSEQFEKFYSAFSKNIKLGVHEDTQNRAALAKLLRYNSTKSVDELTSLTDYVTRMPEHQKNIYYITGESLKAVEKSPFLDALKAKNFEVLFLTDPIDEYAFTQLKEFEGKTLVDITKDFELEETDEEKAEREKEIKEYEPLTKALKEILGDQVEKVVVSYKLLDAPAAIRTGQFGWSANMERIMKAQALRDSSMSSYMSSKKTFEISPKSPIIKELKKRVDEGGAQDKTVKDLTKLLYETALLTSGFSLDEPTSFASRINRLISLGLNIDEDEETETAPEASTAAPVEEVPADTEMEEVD

[3] = molecular target: Hsp90β (UniProt P08238); test: ELISA on immobilized GST-p50Cdc37, nucleotide dose-response; details: sites S13
[4] = molecular target: human full-length Hsp90β (human) (UniProt P08238); test: SEC; analytical Superdex200 10/300 GL, room temperature, 0.3 mL/min; 85 µM protein in 50 mM HEPES pH 7.5, 50 mM KCl, 5 mM MgCl2, 1 mM DTT; fractions on SDS-PAGE
[5] = reference: both proteins unphosphorylated, sites S226,S255,S13
[6] = reference: unphosphorylated Hsp90β, sites S226,S255

human full-length Hsp90β, P08238 1-724 (natural protein; other documents disagree on this pair), sequence (P08238 whole entry): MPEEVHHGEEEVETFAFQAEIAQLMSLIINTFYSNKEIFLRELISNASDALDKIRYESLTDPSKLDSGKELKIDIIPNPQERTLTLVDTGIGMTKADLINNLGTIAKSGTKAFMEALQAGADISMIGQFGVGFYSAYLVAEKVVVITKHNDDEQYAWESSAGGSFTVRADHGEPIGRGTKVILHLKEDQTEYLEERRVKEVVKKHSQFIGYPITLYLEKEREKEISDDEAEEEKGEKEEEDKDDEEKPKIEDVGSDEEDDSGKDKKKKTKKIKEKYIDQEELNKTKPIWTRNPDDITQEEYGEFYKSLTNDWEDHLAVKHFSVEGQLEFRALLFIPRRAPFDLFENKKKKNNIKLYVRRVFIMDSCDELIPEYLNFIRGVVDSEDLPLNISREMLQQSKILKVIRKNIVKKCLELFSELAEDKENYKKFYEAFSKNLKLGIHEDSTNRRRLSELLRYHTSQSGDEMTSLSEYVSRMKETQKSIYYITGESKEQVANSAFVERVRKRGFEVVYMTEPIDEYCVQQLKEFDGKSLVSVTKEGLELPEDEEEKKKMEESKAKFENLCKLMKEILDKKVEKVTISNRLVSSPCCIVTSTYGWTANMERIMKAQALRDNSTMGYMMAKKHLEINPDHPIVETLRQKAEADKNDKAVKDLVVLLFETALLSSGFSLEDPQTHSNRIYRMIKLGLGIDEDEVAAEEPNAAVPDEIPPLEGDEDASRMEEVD
p50Cdc37, sequence (Q16543 whole entry): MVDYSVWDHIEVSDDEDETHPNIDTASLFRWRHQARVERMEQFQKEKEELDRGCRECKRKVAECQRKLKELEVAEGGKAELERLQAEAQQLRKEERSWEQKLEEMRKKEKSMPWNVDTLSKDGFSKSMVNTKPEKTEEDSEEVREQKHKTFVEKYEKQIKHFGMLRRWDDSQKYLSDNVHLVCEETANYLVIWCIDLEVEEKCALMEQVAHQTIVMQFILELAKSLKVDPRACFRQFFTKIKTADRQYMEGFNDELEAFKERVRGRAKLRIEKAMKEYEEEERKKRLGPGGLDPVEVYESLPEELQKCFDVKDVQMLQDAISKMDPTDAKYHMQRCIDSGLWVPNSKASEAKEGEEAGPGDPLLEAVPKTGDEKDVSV

Substance: Hsp90β (from UniProt P08238) both proteins CK2α-phosphorylated, ATP titration
other: IC50 of ATP against complex [1, 5]: weaker; reference >1000

Substance: p50Cdc37 (from UniProt Q16543)
Kd [2]: 1460 nM

Substance: p50Cdc37 1-378 (from UniProt Q16543) CK2α-phosphorylated p50Cdc37, ADP titration
other: IC50 of ADP against complex ([3]; reference: unphosphorylated p50Cdc37, ADP titration): weaker; reference 500 ± 94; also recorded: weaker; reference 220 ± 24

Substance: Hsp90β (from UniProt P08238) CK2α-phosphorylated Hsp90β, ADP titration
other: IC50 of ADP against complex [1, 6]: weaker; reference 500 ± 94; also recorded: weaker; reference 270 ± 35

Substance: human full-length Hsp90β, P08238 1-724 (natural protein; other documents disagree on this pair)
stoichiometry N [4]: 2

Now from value to substance:

other: IC50 of ATP against complex [1, 6]: weaker; reference >1000
Substance: Hsp90β (from UniProt P08238) CK2α-phosphorylated Hsp90β, ATP titration

other: IC50 of ADP against complex [1, 5]: weaker; reference 500 ± 94
Substance: Hsp90β (from UniProt P08238) both proteins CK2α-phosphorylated, ADP titration

other: IC50 of ATP against complex ([3]; reference: unphosphorylated p50Cdc37, ATP titration): same; reference >1000
Substance: p50Cdc37 1-378 (from UniProt Q16543) CK2α-phosphorylated p50Cdc37, ATP titration
